Measurements as given in article PMC3707907, “TdIF1 Recognizes a Specific DNA Sequence through Its Helix-Turn-Helix and AT-Hook Motifs to Regulate Gene Transcription”.

Experiments:
[1] = biological target: T1, TdIF1 (His-tagged) (UniProt Q9H147 1-329); assay: competition; EMSA vs biotin-dsAT; 5, 15, 45 pmol; complex decreased; EMSA: 10 mM Tris-HCl pH 7.5, 100 mM NaCl, 1 mM EDTA, 1 mM DTT, 5% glycerol, 5 pmol probe, 100 ng protein in 10 ul, temperature not stated; GST pull-out: elution in 50 mM Tris-HCl pH 7.4, 5 mM beta-mercaptoethanol, 0.25% Tween 20, 10% glycerol, 150-350 mM NaCl; conditions: protein: recombinant; tags: His; chain copies: 2
T1 sequence: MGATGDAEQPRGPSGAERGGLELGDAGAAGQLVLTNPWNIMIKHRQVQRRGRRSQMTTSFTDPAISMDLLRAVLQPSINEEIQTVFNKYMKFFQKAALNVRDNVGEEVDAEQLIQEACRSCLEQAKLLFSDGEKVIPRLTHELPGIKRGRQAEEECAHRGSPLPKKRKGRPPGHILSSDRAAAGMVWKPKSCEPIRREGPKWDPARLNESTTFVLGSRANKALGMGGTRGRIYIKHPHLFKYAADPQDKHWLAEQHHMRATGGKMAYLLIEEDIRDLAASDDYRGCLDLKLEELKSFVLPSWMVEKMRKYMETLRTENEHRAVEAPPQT

[2] = biological target: T1, TdIF1 (His-tagged); assay: competition; EMSA vs biotin-dsAT; 5, 15, 45 pmol; slightly weaker than competitor I; EMSA: 10 mM Tris-HCl pH 7.5, 100 mM NaCl, 1 mM EDTA, 1 mM DTT, 5% glycerol, 5 pmol probe, 100 ng protein in 10 ul, temperature not stated; GST pull-out: elution in 50 mM Tris-HCl pH 7.4, 5 mM beta-mercaptoethanol, 0.25% Tween 20, 10% glycerol, 150-350 mM NaCl; conditions: protein: recombinant; tags: His; chain copies: 2
[3] = biological target: T1, TdIF1 (His-tagged); assay: EMSA; EMSA: 10 mM Tris-HCl pH 7.5, 100 mM NaCl, 1 mM EDTA, 1 mM DTT, 5% glycerol, 5 pmol probe, 100 ng protein in 10 ul, temperature not stated; GST pull-out: elution in 50 mM Tris-HCl pH 7.4, 5 mM beta-mercaptoethanol, 0.25% Tween 20, 10% glycerol, 150-350 mM NaCl; conditions: protein: recombinant; tags: His; chain copies: 2; label: biotin

B1: Competitor I (SELEX clone 10; AT-tract + GNTGCATG) (dsDNA)
DNA 1: CGCCAAATAAAAGTTGCATGGTCG
DNA 2: CGACCATGCAACTTTTATTTGGCG
[1]
  binding result: binds

B2: Competitor III (GNTGCATG only, AT-tract mutated) (dsDNA)
DNA 1: CGCCAAGCCTCAGTTGCATGGTCG
DNA 2: CGACCATGCAACTGAGGCTTGGCG
[2]
  binding result: binds

B3: biotin-dsAT probe (32-bp AT-rich dsDNA) (dsDNA)
DNA 1: CGGTATTAAAAATTACTGACAATATTAAATTAGATC
DNA 2: TAATTTAATATTGTCAGTAATTTTTAATACCG
[3]
  binding result: binds
